Results taken from patent US20260139032A1.

Biological target: T1, BMP-9 (UniProt Q9UK05)
T1 sequence (looked up): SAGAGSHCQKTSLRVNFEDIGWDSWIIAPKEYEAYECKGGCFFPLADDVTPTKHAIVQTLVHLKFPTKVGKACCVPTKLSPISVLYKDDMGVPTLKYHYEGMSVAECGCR
Assay: cell-based or functional assay

| Substance | BMP-9 IC50 (nM), BMP-reporter HepG2 cell-based assay | fold decrease of inhibition potency on BMP-9, BMP-reporter HepG2 assay |
| --- | --- | --- |
| P1193 (hActRIIB L33Y F58E, 10 aa linker, IgG1-DL Fc) (Fc fusion) | 485 nM | > 100 fold |
| P1198 (hActRIIB L33Q F58E, 3 aa GGG linker, IgG1-DL Fc) (Fc fusion) | 667 nM | > 100 fold |
